# Data from patent US20190202901A1.
# Experiments:
# [1] = target: recombinant human IGF-1R protein (R&D Systems, Cat 391-GR) (human) (UniProt P08069); assay: direct ELISA, rhIGF-1R coated, goat anti-mouse IgG-HRP, TMB, OD 450 nm; Prism sigmoidal dose-response (variable slope) fit
# [2] = target: recombinant human IGF-1R protein (R&D Systems, Cat 391-GR) (human) (UniProt P08069); assay: direct ELISA, rhIGF-1R coating, antibody at 5 µg/ml
# [3] = target: recombinant human IGF-1R protein (R&D Systems, Cat 391-GR) (human) (UniProt P08069); assay: direct ELISA on rhIGF-1R coating, dose response
# [4] = target: recombinant murine IGF-1R protein (R&D Systems, Cat 6630-GR/Fc) (murine) (UniProt Q60751); assay: direct ELISA, rmIGF-1R coating, antibody at 5 µg/ml
Binder,BOTTOM (best-fit value) [1],EC50 [1] [nM],LOGEC50 [1],TOP (best-fit value) [1],OD [2] [OD 450 nm],EC50 [3] [nM],OD [4] [OD 450 nm]
"816C12 (antibody, V domains shown) VH: EVQLQQSGPELVKPGASVKMSCKASGHTFTSYVLHWMKRKPGQGLEWIGYINPHNDVTKYNENFKGKATLTSDKYSSTVYMEVSSLTSEDSAVYYCVSTAYYGNGRYFDVWGAGTTVTVSS VL: DIQMTQTTSSLSASLGDRVTISCRASQDINNYLNWYQQKPDGTVKLLIYYTSRLHSGVSSRFSGSGSGTDYSLTISNLEQEDIATYFCQQGNTLPWTFGGGTKLEIK",0.116 OD (450 nm),0.417,-9.38 log C [M],2.44 OD (450 nm),2.62,0.41,0.065
"810D12 (antibody, V domains shown) VH: EVQLQQSGPELVKPGASVKMSCKASGHTFTSYMLHWVKQKPGQGLEWLGFINPYNDVTKYNENFKGKATLTSDKSSSTAYMELNSLTSEDSAVYFCVTTAYYGNGRYFDVWGAGTTVTVSS VL: DIQMTQTTSSLSASLGDRVTISCRASQDITNYLTWYQQKPDGTVKVLIYYTSRLYSGVPSRFSGSGSGSDYSLTINNLEQEDIATYFCQQGYSLPWTFGGGTKLEIK",0.0807 OD (450 nm),0.513,-9.29 log C [M],2.64 OD (450 nm),2.14,0.51,1.29
